# Source: the supplement of paper PMC6379048
# How the values were obtained:
# Experiment in all cases: Kd (EC50 corrected by depletion factor)
# [1] = target: T1, LIN28B (UniProt Q6ZN17)
# T1 sequence: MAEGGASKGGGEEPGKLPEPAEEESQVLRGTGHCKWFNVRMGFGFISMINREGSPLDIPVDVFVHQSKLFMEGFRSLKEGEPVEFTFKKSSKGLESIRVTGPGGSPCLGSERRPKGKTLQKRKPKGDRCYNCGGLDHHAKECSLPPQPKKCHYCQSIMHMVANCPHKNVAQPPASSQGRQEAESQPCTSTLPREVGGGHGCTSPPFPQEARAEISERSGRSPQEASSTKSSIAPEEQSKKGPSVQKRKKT
# Description: (§1)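 Competition-binding assay: HEK293-FT cell lysate (2.5 mg protein) pre-incubated 1 h at 4°C with free motif-containing RNA oligos (0 to 30 µM, 12 doses), then pulled down with the same 5'-amino-C6 RNA oligos immobilised on NHS-Sepharose beads (30 min, 4°C). Bound proteins were quantified by label-free LC-MS/MS and normalised to the water control. EC50 came from a four-parameter log-logistic fit; Kd = EC50 x depletion factor. Random/reversed control probes are dropped.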
# [2] = target: T2, RTCA (UniProt O00442)
# T2 sequence: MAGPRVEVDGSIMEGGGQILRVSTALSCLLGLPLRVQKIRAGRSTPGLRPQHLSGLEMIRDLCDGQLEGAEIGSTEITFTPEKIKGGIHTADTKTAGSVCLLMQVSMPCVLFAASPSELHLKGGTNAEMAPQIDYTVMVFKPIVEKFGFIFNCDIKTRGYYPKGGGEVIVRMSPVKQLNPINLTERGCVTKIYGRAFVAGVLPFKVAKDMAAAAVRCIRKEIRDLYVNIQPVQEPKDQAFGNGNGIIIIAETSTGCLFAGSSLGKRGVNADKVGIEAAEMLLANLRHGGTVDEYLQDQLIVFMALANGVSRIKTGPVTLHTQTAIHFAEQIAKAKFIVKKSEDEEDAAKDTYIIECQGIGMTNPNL
# Description: as §1
# [3] = target: T3, NKRF (UniProt O15226)
# T3 sequence: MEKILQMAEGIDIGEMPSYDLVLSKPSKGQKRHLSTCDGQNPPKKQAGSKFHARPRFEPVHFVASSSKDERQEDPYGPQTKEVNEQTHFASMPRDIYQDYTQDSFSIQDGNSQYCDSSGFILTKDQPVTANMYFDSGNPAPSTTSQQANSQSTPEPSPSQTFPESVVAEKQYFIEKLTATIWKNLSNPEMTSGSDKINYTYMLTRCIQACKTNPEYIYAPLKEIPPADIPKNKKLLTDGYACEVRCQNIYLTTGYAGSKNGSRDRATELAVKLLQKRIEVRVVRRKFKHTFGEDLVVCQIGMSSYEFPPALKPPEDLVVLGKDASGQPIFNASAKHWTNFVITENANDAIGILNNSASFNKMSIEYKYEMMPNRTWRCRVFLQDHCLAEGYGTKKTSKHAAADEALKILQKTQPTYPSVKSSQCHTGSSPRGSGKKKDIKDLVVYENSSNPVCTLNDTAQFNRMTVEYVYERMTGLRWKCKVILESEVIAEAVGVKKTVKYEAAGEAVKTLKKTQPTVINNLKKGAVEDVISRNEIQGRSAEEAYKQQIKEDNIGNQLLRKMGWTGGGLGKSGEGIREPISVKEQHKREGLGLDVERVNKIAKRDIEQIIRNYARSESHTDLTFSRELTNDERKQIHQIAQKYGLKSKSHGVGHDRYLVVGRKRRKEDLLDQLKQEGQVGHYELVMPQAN
# Description: as §1
# [4] = target: T4, CELF1 (UniProt Q92879)
# T4 sequence: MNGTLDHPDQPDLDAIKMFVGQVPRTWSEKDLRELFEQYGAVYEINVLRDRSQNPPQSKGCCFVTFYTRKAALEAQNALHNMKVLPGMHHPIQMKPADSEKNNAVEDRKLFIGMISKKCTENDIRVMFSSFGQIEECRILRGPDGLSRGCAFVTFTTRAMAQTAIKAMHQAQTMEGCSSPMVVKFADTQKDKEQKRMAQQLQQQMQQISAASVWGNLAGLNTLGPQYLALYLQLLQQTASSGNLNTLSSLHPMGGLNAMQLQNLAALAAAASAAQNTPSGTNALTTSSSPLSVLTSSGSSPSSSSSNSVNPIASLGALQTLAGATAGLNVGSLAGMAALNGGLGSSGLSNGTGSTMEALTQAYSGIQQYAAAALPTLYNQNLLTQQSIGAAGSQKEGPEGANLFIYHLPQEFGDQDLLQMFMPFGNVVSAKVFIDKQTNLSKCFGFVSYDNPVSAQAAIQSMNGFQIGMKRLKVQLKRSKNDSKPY
# Description: as §1
# [5] = target: ZC3HAV1 (UniProt Q7Z2W4)
# Description: as §1
# [6] = target: PHAX (UniProt Q9H814)
# Description: as §1
# Sequence of ZC3HAV1 (Q7Z2W4 whole entry): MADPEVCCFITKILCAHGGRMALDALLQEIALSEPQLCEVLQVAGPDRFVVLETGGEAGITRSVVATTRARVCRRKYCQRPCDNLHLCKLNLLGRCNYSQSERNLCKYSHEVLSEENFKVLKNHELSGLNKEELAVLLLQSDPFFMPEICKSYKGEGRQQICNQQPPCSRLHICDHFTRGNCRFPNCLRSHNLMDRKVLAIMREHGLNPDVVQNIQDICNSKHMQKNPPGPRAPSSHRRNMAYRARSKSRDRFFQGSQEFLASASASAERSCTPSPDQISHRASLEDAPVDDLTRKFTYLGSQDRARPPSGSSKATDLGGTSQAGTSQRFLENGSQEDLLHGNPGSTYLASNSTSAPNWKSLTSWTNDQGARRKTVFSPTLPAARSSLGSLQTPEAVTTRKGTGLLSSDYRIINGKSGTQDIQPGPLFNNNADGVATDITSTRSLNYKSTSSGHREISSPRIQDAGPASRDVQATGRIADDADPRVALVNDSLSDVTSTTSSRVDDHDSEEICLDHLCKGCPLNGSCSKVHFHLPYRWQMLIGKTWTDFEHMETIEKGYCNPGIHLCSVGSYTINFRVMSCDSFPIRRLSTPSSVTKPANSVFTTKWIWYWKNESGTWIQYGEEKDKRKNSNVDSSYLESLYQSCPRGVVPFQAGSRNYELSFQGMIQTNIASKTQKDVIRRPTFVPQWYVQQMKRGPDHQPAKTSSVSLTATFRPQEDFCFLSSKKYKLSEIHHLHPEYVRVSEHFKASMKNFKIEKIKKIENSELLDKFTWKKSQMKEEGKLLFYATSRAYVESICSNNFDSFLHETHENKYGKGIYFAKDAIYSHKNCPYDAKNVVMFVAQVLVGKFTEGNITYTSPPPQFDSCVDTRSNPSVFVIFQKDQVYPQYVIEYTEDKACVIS
# Sequence of PHAX (Q9H814 whole entry): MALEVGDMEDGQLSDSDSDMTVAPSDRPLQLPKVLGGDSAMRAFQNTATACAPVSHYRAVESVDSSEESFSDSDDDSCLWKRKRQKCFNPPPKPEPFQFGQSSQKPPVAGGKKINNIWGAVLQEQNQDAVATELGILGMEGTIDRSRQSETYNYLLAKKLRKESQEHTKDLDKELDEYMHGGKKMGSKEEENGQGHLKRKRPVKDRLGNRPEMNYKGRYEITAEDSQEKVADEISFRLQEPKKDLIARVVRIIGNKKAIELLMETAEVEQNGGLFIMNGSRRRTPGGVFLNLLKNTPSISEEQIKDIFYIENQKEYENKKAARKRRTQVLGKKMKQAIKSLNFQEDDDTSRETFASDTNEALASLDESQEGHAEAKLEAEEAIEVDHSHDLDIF
Sequence,Kd [1],Kd [2],Kd [3],Kd [4],Kd [5],Kd [6]
AAUAAA,610 nM,81.1 nM,222 nM,162 nM,776 nM,15500 nM
CUGUCCU,1220 nM,990 nM,298 nM,3660 nM,867 nM,533 nM
UAUUUAU,1100 nM,273 nM,223 nM,350 nM,4310 nM,5070 nM
